In article PMC12420816 (Nature Communications, 2025):

Tests used:
[1] = biological target: SARS-CoV-2 nsp7-11 polyprotein, tag-free with native (authentic) termini (SARS-CoV-2); test: native MS
native MS = biological target: the molecule itself; test: native MS

Molecule: SARS-CoV-2 nsp7-11 polyprotein, tag-free with native (authentic) termini (domain or fragment)
- stoichiometry N [1]: 2

B1: MERS-CoV mature nsp7, released from nsp7-11 by SARS-CoV-2 M^pro (natural protein)
chain: SKLTDLKCTSVVLLSVLQQLHLEANSRAWAFCVKCHNDILAATDPSEAFEKFVSLFATLMTFSGNVDLDALASDIFDTPSVLQ
- stoichiometry N (native MS): 2
